Experimental data reported in article PMC11196578.

Target: MPXV E5_∆N (Mpox virus, UniProt A0A7H0DN89 323-785)
Experiment: cryo-EM (2.67 A)
Details: protein: recombinant; tags: SUMO fusion; protease-treated (ULP or TEV); chain copies: 6

Sequence of MPXV E5_∆N (A0A7H0DN89 323-785): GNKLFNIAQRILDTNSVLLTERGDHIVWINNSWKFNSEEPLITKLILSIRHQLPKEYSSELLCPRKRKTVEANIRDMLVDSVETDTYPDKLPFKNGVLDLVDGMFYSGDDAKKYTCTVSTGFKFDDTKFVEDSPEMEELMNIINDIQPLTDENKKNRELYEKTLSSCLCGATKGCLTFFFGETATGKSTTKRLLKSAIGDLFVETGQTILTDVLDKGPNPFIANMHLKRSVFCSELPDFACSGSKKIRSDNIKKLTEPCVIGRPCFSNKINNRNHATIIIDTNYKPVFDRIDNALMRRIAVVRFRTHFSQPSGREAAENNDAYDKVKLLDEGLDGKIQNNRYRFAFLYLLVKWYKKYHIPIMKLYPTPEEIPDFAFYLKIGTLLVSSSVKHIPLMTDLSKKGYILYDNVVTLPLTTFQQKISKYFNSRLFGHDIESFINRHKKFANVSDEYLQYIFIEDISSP

B1: Forked DNA (mixed)
DNA 1: AACGAGTCAAGCGCATCCCGTTTTTTTTTTTTTTT
DNA 2: TTTTTTTTTTTTTTTCGGGATGCGCTTGACTCGTT
Does B1 bind?
Result: binds
